Measured values: patent US20050244406A1 (G2 THERAPIES, published 2005)

How the values were obtained:
human C5aR [1] = target: T1, human C5aR (human, UniProt P21730 1-350); assay: cell-based or functional assay
T1 chain: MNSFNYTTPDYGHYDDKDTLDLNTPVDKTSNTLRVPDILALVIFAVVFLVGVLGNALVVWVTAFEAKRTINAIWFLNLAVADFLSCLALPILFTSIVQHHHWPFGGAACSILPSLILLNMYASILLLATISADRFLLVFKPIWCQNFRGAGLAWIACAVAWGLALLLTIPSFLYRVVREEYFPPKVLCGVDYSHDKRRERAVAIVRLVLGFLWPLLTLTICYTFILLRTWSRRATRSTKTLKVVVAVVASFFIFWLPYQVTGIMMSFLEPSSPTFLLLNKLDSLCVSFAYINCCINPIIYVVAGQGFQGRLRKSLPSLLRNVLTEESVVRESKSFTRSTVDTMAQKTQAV

CX3CR1 (V28) = target: T2, CX3CR1 (V28) (UniProt P49238 1-355, limits assumed); assay: flow cytometry on transfected L1.2 cells
T2 construct: whole, on cells; also called L1.2 V28
T2 sequence (looked up): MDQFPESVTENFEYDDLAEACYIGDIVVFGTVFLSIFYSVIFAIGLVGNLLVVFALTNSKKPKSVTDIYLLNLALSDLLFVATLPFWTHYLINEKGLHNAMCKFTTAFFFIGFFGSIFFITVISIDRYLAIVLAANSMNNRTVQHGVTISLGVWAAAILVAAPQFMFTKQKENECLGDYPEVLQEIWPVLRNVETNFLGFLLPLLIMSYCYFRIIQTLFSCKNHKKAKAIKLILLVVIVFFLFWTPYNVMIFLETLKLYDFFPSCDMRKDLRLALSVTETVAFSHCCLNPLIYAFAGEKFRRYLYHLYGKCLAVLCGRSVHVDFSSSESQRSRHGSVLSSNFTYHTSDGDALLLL

CXCR2 = target: T3, CXCR2 (UniProt P25025 1-360, limits assumed); assay: flow cytometry on transfected L1.2 cells
T3 construct: whole, on cells; also called L1.2CXCR2
T3 sequence (looked up): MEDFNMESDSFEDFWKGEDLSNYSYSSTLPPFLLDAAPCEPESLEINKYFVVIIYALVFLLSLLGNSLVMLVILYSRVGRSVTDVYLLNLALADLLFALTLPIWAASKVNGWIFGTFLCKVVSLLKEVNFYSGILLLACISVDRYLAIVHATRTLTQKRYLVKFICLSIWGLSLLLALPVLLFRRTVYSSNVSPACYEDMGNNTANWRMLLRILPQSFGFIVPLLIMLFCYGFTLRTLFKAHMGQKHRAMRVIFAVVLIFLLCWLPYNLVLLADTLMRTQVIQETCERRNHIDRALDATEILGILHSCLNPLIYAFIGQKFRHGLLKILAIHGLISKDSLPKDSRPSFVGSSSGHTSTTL

[2] = target: T4, C5aR N-terminal peptide (residues 9-29), PEPI (human); assay: ELISA, PEPI coated at 1 µg/ml
T4 construct: Synthetic peptide (Biosource), residues 9-29 of C5aR; also called C5aR N-terminal peptide 9-29
T4 peptide: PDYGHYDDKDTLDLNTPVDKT
Method: ELISAs were performed as described in Current Protocols in Immunology (Unit 2.1) (Edited by J. F. Coligan, A. M. Kruisbeek, D. B. Margulies, E. M. Shevach and W. Strober), John Wiley and Sons, New York. Briefly, 96-well flat bottom ELISA plates (Maxisorp; Nunc) were coated with 1 μg/ml protein (PEPI or OPG) in PBS at 37° C. for 1 hr, then blocked with BSA at 4° C. overnight. The plates were then washed, incubated with antibodies, washed and incubated with peroxidase-conjugated sheep anti-mouse IgG antibody. The substrate used was TMB substrate reagent (PharMingen).
ELISA assays were performed as described above to measure the reactivity of MAbs 6C12, 12D4, 7F3, with PEPI and OPG. OPG is a member of the TNF-receptor superfamily which binds specifically to its ligand TNFSF11/OPGL. More specifically, OPG is an osteoblast-secreted decoy receptor that functions as a negative regulator of bone resorption.
MAbs 6C12, 12D4 and 7F3 were used in the ELISA as purified proteins at a concentration of 1 μg/mL. MAb 9C1 (which is specific for OPG) and MAb 11B9 (which recognises PEPI) were used as positive controls. These control MAbs were used in the form of undiluted tissue culture supernatant.

human C5aR [3] = target: T1, human C5aR; assay: flow cytometry on L1.2 C5aR transfectants
human C5aR [4] = target: T1, human C5aR; assay: flow cytometry on L1.2 cells with human C5aR, MAb 50 ug/ml, with PEPI 1-100 µM
Method: Anti-C5aR MAbs were added at 50 ug/ml, to a C5aR N-terminal synthetically produced peptide (residues 9-29) known as “PEPI” (Biosource; Eldridge) at concentrations ranging from 1 to 100 μM. Mouse L1.2 cells transfected with human C5a receptor and resuspended in 1% bovine serine albumin (BSA; GibcoBRL) (1×10^7/ml) were then added to give a total volume of 100 μl. The cells were incubated for 30 min at 4° C. and washed once with 0.1% BSA. Fluorescein (FITC) conjugated, sheep anti-mouse IgG, F(ab′)2 (Jackson Immunoresearch Laboratories Inc.) was used as a secondary Ab (1:200) and incubated for 15 min at 4° C., followed by an additional washing step with 0.1% BSA The cells were resuspended in 0.1% BSA and analysed by flow cytometry.

B1: MAb 7F3 (antibody, V domains shown)
VH: QVQLQQSGPELVKPGASVKISCKASGYAFSNSWMNWVKQRPGKGLEWIGRIYPGDGDTKYNGKFKGKATLTADKSSSTAYMQLSSLTSEDSAVYFCARFLLISTVTAVDYWGQGTTLTVSS
VL: DVVMTQSPLSLPVSLGNQASISCRSSQSLVHSNGNTYLHWYLQKPGQSPKLLIYKVSNRFSGVPDRFSGSGSGTDFSLKISRVEAEDLGVYFCSQSTLVPLTFGAGTKLELK
notes: Murine monoclonal antibody from hybridoma ECACC 00110609; also called monoclonal antibody 7F3
With B1 the “neutrophil migration towards C5a” value (human C5aR [1]) was 140 fold reduction, the binding result (CX3CR1 (V28)) was “no binding” and the binding result (CXCR2) was “no binding”. B1: no binding (tested: 1 µg/mL) [2].

B2: MAb 12D4 (antibody, IgG3, V domains shown)
VH: QVQLKESGPGLVAPSQSLSITCTVSGFSLTSYGVDWVRQSPGKGLEWLGVIWGVGSTNYNSALKSRLSISKDNSKSQVFLKMNSLQTDDAAMYYCASHYGYDGLGFAYWGQGTLVTVSV
VL: DVVMTQTPLSLPVSLGDQASISCRSSQSLVHSSGNTYLHWYLQKPGQSPKLLIYKVSNRFSGVPDRFSGSGSGTHFTLKISRVEAEDLGIYFCSQSTLVPPTFGGGTKLEIK
notes: Murine monoclonal antibody from hybridoma ECACC 02090227; also called 12D4-P9
B2: binds (human C5aR [3]); no binding (CX3CR1 (V28)); no binding (CXCR2). B2: no binding (tested: 1 µg/mL) [2].

B3: MAb 6C12 (antibody, IgG3, V domains shown)
VH: QVQLQQSGPEVVKPGASVKISCKASGYAFSRSWMNWVKQRPGKGLEWIGRIDAGDGDTKYNGKFKGKATLTADKSSSTAYMQLSSLTSEDSAVYFCASLLITTVVGAMDYWGQGTSVTVSS
VL: DVVMTQIPLSLPVSLGDQTSISCRSSQSLIHSNGNTYLHWYLQKPGQSPKLLIYKVSNRFSGVPDRFSGSGSGTDFTLKISRVEAEDMGVYFCSQSTHVPPTFGGGTKLEIK
notes: Murine monoclonal antibody from hybridoma ECACC 02090226; also called 6C12 M12
B3: no binding (CX3CR1 (V28)); no binding (CXCR2); binds (human C5aR [4]). B3: no binding (tested: 1 µg/mL) [2].
